Experimental data: IntAct's records for PubMed 19276109

B1: Protein ABSCISIC ACID-… 5 (Arabidopsis thaliana (Mouse-ear cress)), Q9SJN0 (parent)
chain: MVTRETKLTSEREVESSMAQARHNGGGGGENHPFTSLGRQSSIYSLTLDEFQHALCENGKNFGSMNMDEFLVSIWNAEENNNNQQQAAAAAGSHSVPANHNGFNNNNNNGGEGGVGVFSGGSRGNEDANNKRGIANESSLPRQGSLTLPAPLCRKTVDEVWSEIHRGGGSGNGGDSNGRSSSSNGQNNAQNGGETAARQPTFGEMTLEDFLVKAGVVREHPTNPKPNPNPNQNQNPSSVIPAAAQQQLYGVFQGTGDPSFPGQAMGVGDPSGYAKRTGGGGYQQAPPVQAGVCYGGGVGFGAGGQQMGMVGPLSPVSSDGLGHGQVDNIGGQYGVDMGGLRGRKRVVDGPVEKVVERRQRRMIKNRESAARSRARKQAYTVELEAELNQLKEENAQLKHALAELERKRKQQYFESLKSRAQPKLPKSNGRLRTLMRNPSCPL

Variants of: B1
Settings: with sumo1_arath SUMO1, P55852
Sequence of sumo1_arath SUMO1, P55852 (P55852 whole entry): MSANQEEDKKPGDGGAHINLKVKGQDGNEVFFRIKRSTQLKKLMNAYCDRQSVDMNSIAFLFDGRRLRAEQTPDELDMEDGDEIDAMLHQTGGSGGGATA

effect of a mutation on the interaction | Variant
disrupting interaction | MVTRETKLTSEREVESSMAQARHNGGGGGENHPFTSLGRQSSIYSLTLDEFQHALCENGKNFGSMNMDEFLVSIWNAEENNNNQQQAAAAAGSHSVPANHNGFNNNNNNGGEGGVGVFSGGSRGNEDANNKRGIANESSLPRQGSLTLPAPLCRKTVDEVWSEIHRGGGSGNGGDSNGRSSSSNGQNNAQNGGETAARQPTFGEMTLEDFLVKAGVVREHPTNPKPNPNPNQNQNPSSVIPAAAQQQLYGVFQGTGDPSFPGQAMGVGDPSGYAKRTGGGGYQQAPPVQAGVCYGGGVGFGAGGQQMGMVGPLSPVSSDGLGHGQVDNIGGQYGVDMGGLRGRKRVVDGPVEKVVERRQRRMIKNRESAARSRARKQAYTVELEAELNQLREENAQLKHALAELERKRKQQYFESLKSRAQPKLPKSNGRLRTLMRNPSCPL [K391R]
